This note sets out measurements from paper PMC5825165, “EAT1 transcription factor, a non-cell-autonomous regulator of pollen production, activates meiotic small RNA biogenesis in rice anther tapetum” (PLoS Genetics, 2018).

The target in the experiment is T1, UDT1-nYFP (UNDEVELOPED TAPETUM1 fused with the N-terminal split of YFP) (rice (japonica cv. Nipponbare), UniProt B9FXT3 1-234).
T1 sequence (looked up): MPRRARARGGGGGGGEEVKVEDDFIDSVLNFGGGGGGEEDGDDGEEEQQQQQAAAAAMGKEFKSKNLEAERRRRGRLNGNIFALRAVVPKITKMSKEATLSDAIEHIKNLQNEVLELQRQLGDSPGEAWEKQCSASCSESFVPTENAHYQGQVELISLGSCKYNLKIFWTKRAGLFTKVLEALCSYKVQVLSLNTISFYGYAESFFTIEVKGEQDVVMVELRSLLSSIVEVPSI
Nature of the experiment: cell-based or functional assay.

B1: TIP2-cYFP (TDR INTERACTING PROTEIN2 fused with the C-terminal split of YFP) (natural protein, rice (japonica cv. Nipponbare), UniProt Q5JNS0 1-379, looked up)
chain: MYHPQCELLMPLESLEMDVGQSHLAAAVAAAMPGELNFHLLHSLDAAAAAASSTAASASSQPTVDYFFGGADQQPPPPAAMQYDQLAAPHHHQTVAMLRDYYGGHYPPAAAAAAATEAYFRGGPRTAGSSSLVFGPADDESAFMVGPFESSPTPRSGGGRKRSRATAGFHGGGPANGVEKKEKQRRLRLTEKYNALMLLIPNRTKEDRATVISDAIEYIQELGRTVEELTLLVEKKRRRREMQGDVVDAATSSVVAGMDQAAESSEGEVMAAAAMGAVAPPPRQAPIRSTYIQRRSKETFVDVRIVEDDVNIKLTKRRRDGCLAAASRALDDLRLDLVHLSGGKIGDCHIYMFNTKIHSGSPVFASAVASRLIEVVDEY
Turning to B1, the “transient expression assay in rice protoplasts: firefly Luciferase activity of the 24-PHAS chr5-20 promoter on TIP2-UDT1 cotransfection (untagged effectors)” value was 8.63 fold, the “transient expression assay in rice protoplasts: firefly Luciferase activity of the 24-PHAS chr6-97 promoter on TIP2-UDT1 cotransfection (untagged effectors)” value amounted to 2.73 fold, the “transient expression assay in rice protoplasts: firefly Luciferase activity of the DCL5 promoter (pDCL5) on TIP2-UDT1 cotransfection (untagged effectors)” value turned out to be 4.91 fold and the “transient expression assay in rice protoplasts: firefly Luciferase activity of the EAT1 promoter (pEAT1) on TIP2-UDT1 cotransfection (untagged effectors)” value came to 5.72 fold.

B2: EAT1-cYFP (ETERNAL TAPETUM1 fused with the C-terminal split of YFP) (natural protein, rice (japonica cv. Nipponbare), UniProt Q7X8R0 1-464, looked up)
chain: MIVGAGYFEDSHDQSLMAGSLIHDSNQAPASSENTSIDLQKFKVHPYSTEALSNTANLAEAARAINHLQHQLEIDLEQEVPPVETANWDPAICTIPDHIINHQFSEDPQNILVEQQIQQYDSALYPNGVYTPAPDLLNLMQCTMAPAFPATTSVFGDTTLNGTNYLDLNGELTGVAAVPDSGSGLMFASDSALQLGYHGTQSHLIKDICHSLPQNYGLFPSEDERDVIIGVGSGDLFQEIDDRQFDSVLECRRGKGEFGKGKGKANFATERERREQLNVKFRTLRMLFPNPTKNDRASIVGDAIEYIDELNRTVKELKILVEQKRHGNNRRKVLKLDQEAAADGESSSMRPVRDDQDNQLHGAIRSSWVQRRSKECHVDVRIVDDEVNIKLTEKKKANSLLHAAKVLDEFQLELIHVVGGIIGDHHIFMFNTKVSEGSAVYACAVAKKLLQAVDVQHQALDIFN
B2: the “transient expression assay in rice protoplasts: firefly Luciferase activity of the 24-PHAS chr5-20 promoter on EAT1-UDT1 cotransfection (untagged effectors), fold against the no effector control” value came to 4.46 fold; the “transient expression assay in rice protoplasts: firefly Luciferase activity of the 24-PHAS chr6-97 promoter on EAT1-UDT1 cotransfection (untagged effectors), fold against the no effector control” value came to 3.99 fold; the “transient expression assay in rice protoplasts: firefly Luciferase activity of the EAT1 promoter (pEAT1) on EAT1-UDT1 cotransfection (untagged effectors)” value came out at 7.61 fold.
